Measured values published in article PMC10138680, “Identification and Functional Analysis of Tartrate-Resistant Acid Phosphatase Type 5b (TRAP5b) in Oreochromis niloticus” (International Journal of Molecular Sciences, 2023).

System: T1, O=[N+]([O-])c1ccc(OP(=O)(O)O)cc1
T1 construct: mature peptide of 302 residues (22-residue signal peptide removed; precursor 324 aa), N-terminal MBP tag (pMAL-c5X) kept, E. coli K12 TB1, amylose resin; forward primer F2 encodes MVEQGA
Assay: purified protein
Assay type: biochemical, Oreochromis niloticus
Settings: substrate 5-25 mM, pH and temperature of the kinetic runs not stated (50 mM acetate; optimum pH 5.0, 50 °C; standard assay 37 °C)

(r)OnTRAP5b (Oreochromis niloticus), sequence (chain, as listed by the source): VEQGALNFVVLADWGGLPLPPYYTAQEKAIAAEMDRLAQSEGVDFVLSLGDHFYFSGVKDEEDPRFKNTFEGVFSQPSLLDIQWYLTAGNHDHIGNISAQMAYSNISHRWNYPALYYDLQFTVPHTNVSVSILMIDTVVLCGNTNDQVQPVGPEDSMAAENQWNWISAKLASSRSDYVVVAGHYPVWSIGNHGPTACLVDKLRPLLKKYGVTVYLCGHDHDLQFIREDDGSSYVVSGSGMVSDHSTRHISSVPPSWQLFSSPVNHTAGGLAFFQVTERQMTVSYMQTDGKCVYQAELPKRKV

(r)OnTRAP5b (Oreochromis niloticus) was tested, and the Km was 2112 µM and the kcat was 0.27 s⁻¹.
